Measurements taken from the supplement of paper PMC9732359.
± gives the uncertainty stated by the source.

assay: protein stability index of a GFP-peptide fusion (yeast GPS) (PSI 1-4); higher = more stable; sorted into four equal gates, so the index is relative within each strain; conditions: ubr1∆
Outline: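 Plasmids in a pooled yeast library fused tiled 17-residue yeast protein peptides downstream of GFP and also expressed Cherry. Mid-log cultures grown without leucine were sorted into four equal gates by GFP/Cherry fluorescence ratio. Each gate's plasmids were PCR-amplified and Illumina-sequenced, and reads were matched to strains by barcodes. The protein stability index is derived by multiplying each gate's read frequency by its gate number and summing the results.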

Row | Sequence | protein stability index
1 | ERVSPTDIEEGMRVGVD [RPT1] | 3.16 ± 0.12
2 | ESAPITAEDSWAVISAF [RPB2] | 2.99 ± 0.06
3 | ESDLYKLKECPFDMGGY [RPB2] | 3.34 ± 0.036
4 | ESDSKLQCHISGTTNFM [UBP6] | 3.08 ± 0.15
5 | ESGEFDFDLFKEVLPDL [YJL039C/NUP192] | 3.23 ± 0.079
6 | ESIDVDMDAESNESQNG [SMC3] | 3.27 ± 0.037
7 | ESKGNAFKHKRALVEHI [RPL19A] | 3.29 ± 0.054
8 | ESKQDGLSILFLTGQFA [YML103C/NUP188] | 2.72 ± 0.063
9 | ESLTFNEFQLQWGKYQT [SWI1] | 2.91 ± 0.034
10 | ESNKRYRFFKKISEDPV [SNF12] | 2.69 ± 0.061
11 | ESPLSVAIQQGDIKPEF [YML103C/NUP188] | 2.38 ± 0.075
12 | ESQEKYMEPFDLDLNEQ [NSL1] | 3.3 ± 0.045
13 | ESQYPIVTEQPSAEIRE [SWP82] | 2.56 ± 0.039
14 | ESSKLMTVTKVSLPEGS [BRR2] | 2.63 ± 0.073
15 | ESVPTPANAEPQAVTIT [ITC1] | 3.18 ± 0.16
16 | ETAKMIENMTKEKVSNG [FAS2] | 3.02 ± 0.11
17 | ETEEIDPELLRSYIFGG [RPL5] | 3.23 ± 0.075
18 | ETELPTLSLPDSQDYIL [SMC1] | 3.29 ± 0.055
19 | ETHETNISNAKLANFFS [YAR002W/NUP60] | 3.2 ± 0.13
20 | ETHSKKRKKEANEEPNT [ITC1] | 2.17 ± 0.058
21 | ETKSWINESAENFSNGI [MED1] | 2.77 ± 0.042
22 | ETNGYDPFSIYGFSNKE [SNF5] | 2.03 ± 0.063
23 | ETPEGQACGLVKNLSLM [RPB2] | 3.03 ± 0.13
24 | ETQEIKENDTVMNTKLL [ESC2] | 3.18 ± 0.055
25 | ETRPAQVILPMSPNHGT [FAS2] | 2.36 ± 0.036

Row | Sequence | protein stability index
26 | ETTIDDLPISSTDNEAI [SMC1] | 2.97 ± 0.058
27 | EVAVPDRVAKVLTYPEK [RPO31] | 3.23 ± 0.078
28 | EVEPALLLLQDYVTNPD [RPN1] | 1.14 ± 0.17
29 | EVTDKNYYYLFDKKSFF [PRP8] | 2.84 ± 0.04
30 | EVTEGQAEATEWAEENA [RPS0B] | 2.44 ± 0.14
31 | EVTIEDALKVVLRTALV [RPS12] | 3.11 ± 0.067
32 | EVTKEEDIIANYASVYP [RRP43] | 3.06 ± 0.055
33 | EVTKGEKTYTKAPKIQR [RPS6A] | 3.53 ± 0.13
34 | EVTKSSHVENLEEKLYQ [YIL149C/MLP2] | 2.98 ± 0.048
35 | EVYGINEESTNERLEIN [SIR4] | 3.15 ± 0.14
36 | EWKSEFVVPTFGQDVSP [SNM1] | 2.24 ± 0.05
37 | EYNEDSRLCTPIPVQGE [RPN13] | 3.11 ± 0.28
38 | EYQIVYYNPQAGTKITI [RGR1] | 2.45 ± 0.1
39 | FAGVASMNVTLGVPRIK [RPO31] | 2.76 ± 0.064
40 | FAISMGYLFKVSALDKC [ECM29] | 2.13 ± 0.13
41 | FANYKLLLKKIIKDYVL [SRB4] | 1.86 ± 0.035
42 | FDDILKVGAEMMMQQQL [MED2] | 2.46 ± 0.086
43 | FDISMADLSSSEEEEDE [SSN2] | 2.45 ± 0.063
44 | FDKVIYHLHPTFANPNR [TAF14] | 1.19 ± 0.057
45 | FDNVASVFMPLIFIACN [ECM29] | 2.71 ± 0.032
46 | FDPVYTTVITVFLEFSL [YML103C/NUP188] | 1.62 ± 0.023
47 | FDSVIVENLTVAQECIA [SMC1] | 1.27 ± 0.061
48 | FDVNNIDMHLIYGVEWL [YDL116W/NUP84] | 2.27 ± 0.044
49 | FEAQIDSVEFIFQAKRN [RPN10] | 2.66 ± 0.1
50 | FEETKLSTTPTKSNRRV [SIR4] | 2.78 ± 0.15

Row | Sequence | protein stability index
51 | FELCSLGDKELWPVAIG [YJR042W/NUP85] | 2.49 ± 0.28
52 | FENCYLEGNDIHALAAK [FAS1] | 2.69 ± 0.041
53 | FEQKGSQTTTNDSKEES [YLR335W/NUP2] | 3.23 ± 0.05
54 | FEYLATVMYQRRSKMNP [PRE4] | 2.57 ± 0.28
55 | FEYSKYRPLTPSSEVYS [RRP6] | 2.83 ± 0.056
56 | FFTNPNKKRPSSKKVFS [YOR098C/NUP1] | 3 ± 0.05
57 | FGAKMSRTLILSILNEI [SIN4] | 1.68 ± 0.039
58 | FGAKSDENKAGATSKPA [YJL041W/NSP1] | 3.25 ± 0.086
59 | FGHLKLALPVFHIGYFK [RPO31] | 1.13 ± 0.043
60 | FGINTNTTKTADTKAPT [YLR335W/NUP2] | 3.5 ± 0.048
61 | FGKTVKDGPFYTGSMSL [RPC31] | 2.98 ± 0.1
62 | FGQRAVLKFAAHTGATP [RPS0A] | 2.61 ± 0.067
63 | FIENFLTNDTFEKKLSI [YML103C/NUP188] | 3 ± 0.093
64 | FIKEIHKSIELISNLLF [YCS4] | 2.46 ± 0.034
65 | FIMVKGCIPGNRKRIVT [RPL3] | 1.28 ± 0.06
66 | FISNLPNVSDKYYLEES [NUT1] | 1.27 ± 0.076
67 | FISSNDAFNMLSLTTVP [SNF6] | 2 ± 0.06
68 | FIYDTEKNGGLGWDLDA [FAS2] | 2.52 ± 0.054
69 | FKATHILDFGPGGASGL [FAS1] | 2.96 ± 0.21
70 | FKLDKDTSNWELSDSWR [YGL100W/SEH1] | 3.31 ± 0.042
71 | FKRVSQTFEAKLHFKDT [NUT1] | 3.19 ± 0.051
72 | FKVQIIELLSYLVEAPW [YML103C/NUP188] | 2.26 ± 0.14
73 | FLFAPELGAINLHALSM [SWI1] | 2.17 ± 0.056
74 | FLKLVLSESPVDFEKFE [SIN4] | 2.7 ± 0.067
75 | FLKVKGLVKQHLDSFNY [RET1] | 2.94 ± 0.19

Row | Sequence | protein stability index
76 | FLNDVIPTTKNLRLLVE [DLS1] | 3.47 ± 0.087
77 | FLRPTYPDLCSIYDKWT [RPN1] | 2.47 ± 0.046
78 | FLSPYISTHLKTICNLL [IRR1] | 1.29 ± 0.038
79 | FLSSFDDVLQTIITDCA [YJL039C/NUP192] | 2.38 ± 0.034
80 | FMDETAVALAASDLVLI [SNU114] | 2.21 ± 0.051
81 | FNITDNGVRALFHSCTR [GRR1] | 2.35 ± 0.054
82 | FNQFVDYTLQDIICEDS [RPB2] | 2.36 ± 0.079
83 | FNTLVRIMSTRCMMAAQ [DIS3] | 1.58 ± 0.036
84 | FNVDDVLKFTFTGEKPI [MED8] | 2.98 ± 0.068
85 | FNYVAVGDVSNLPYLDE [QCR2] | 3.11 ± 0.06
86 | FPKTTVAALRFTAGARA [RPL18A] | 1.5 ± 0.12
87 | FPQYKLTTFANQVMMDR [ARP7] | 2.4 ± 0.06
88 | FQHILRLLNTNVDGNIK [RPS18A] | 2.59 ± 0.043
89 | FQITLSSDDLQNCWSLI [SSN8] | 1.91 ± 0.045
90 | FQLPTTCVSMAPIQLKI [RGR1] | 1.67 ± 0.039
91 | FQNTNTRSALKLVRESE [QCR2] | 2.64 ± 0.07
92 | FRNNKNDNYSSDMENDN [REC8] | 2.73 ± 0.11
93 | FRSLFFRSYMDQEKKYG [RPB2] | 2.57 ± 0.038
94 | FRVQSQSNYGIYSSDAQ [NUT1] | 2.42 ± 0.1
95 | FSFGAATPSAKEASQED [YLR335W/NUP2] | 3.16 ± 0.087
96 | FSFGAKANEKKESDESK [YJL041W/NSP1] | 3.18 ± 0.18
97 | FSFSKSEEERKSSPISN [YOR098C/NUP1] | 2.94 ± 0.084
98 | FSLLVKAEIPPEYAKVG [SIN4] | 2.72 ± 0.036
99 | FSSNERYFFWLQEKNSG [RPN13] | 2.25 ± 0.055
